Assay results published in doi:10.1101/2023.01.09.523197.

Molecular target: M. tuberculosis RNA polymerase holoenzyme (M. tuberculosis) (UniProt P9WGZ1)
Assay: single-molecule fluorescence

M. tuberculosis GlnR C60SL147C labelled with Alexa Fluor 647 (from UniProt O53830 1-255) (natural protein)
stoichiometry N: 4
